Substrate: C=C1C[C@]23C[C@@]1(O)CC[C@H]2[C@@]12CCC[C@@](C)(C(=O)O1)[C@H]2[C@@H]3C(=O)O
Assay: tritiated water release from [3H3]GA20, Michaelis-Menten fit (Origin)
Type: biochemical, Arabidopsis thaliana
Conditions: labelled compound (possible tritium isotope effect), 4 mM 2-oxoglutarate, 0.5 mM FeSO4, 4 mM ascorbate, 4 mM DTT, BSA, catalase, 100 mM Tris-HCl pH 7.9, 30 °C

B1: AtGA3OX4 (Arabidopsis thaliana) (protein)
chain: MPSLAEEICIGNLGSLQTLPESFTWKLTAADSLLRPSSAVSFDAVEESIPVIDLSNPDVTTLIGDASKTWGAFQIANHGISQKLLDDIESLSKTLFDMPSERKLEAASSDKGVSGYGEPRISPFFEKKMWSEGFTIADDSYRNHFNTLWPHDHTKYCGIIQEYVDEMEKLASRLLYCILGSLGVTVEDIEWAHKLEKSGSKVGRGAIRLNHYPVCPEPERAMGLAAHTDSTILTILHQSNTGGLQVFREESGWVTVEPAPGVLVVNIGDLFHILSNGKIPSVVHRAKVNHTRSRISIAYLWGGPAGDVQIAPISKLTGPAEPSLYRSITWKEYLQIKYEVFDKAMDAIRVVNPTN
notes: pET32 Xa/LIC N-terminal poly(His)-thioredoxin fusion expressed in E. coli BL21 (DE3), tag cut at engineered thrombin site, Superdex 75
Q: For B1, which Km is on record?
A: 0.82 µM
